In publication PMC10507807, “De novo design of a stapled peptide targeting SARS-CoV-2 spike protein receptor-binding domain” (RSC Medicinal Chemistry, 2023):

Biological target: recombinant SARS-CoV-2 spike B.1.617.2 with His-tag (SARS-CoV-2), P0DTC2
Experiment: BLI

B1: stapled peptide pep39 (designed binder)
chain: GTEWLYKVWKAFVDNMS
modifications: not checked
- Kd: 4.1 µM
